Data reported in paper doi:10.1101/2020.07.13.201541.

What was measured:
Experiment in all cases: SPR
[1] = target: HtsH3C-Myc-His (cytoplasmic fragment of HtsH3) (Lysobacter enzymogenes)
[2] = target: RpfG-MBP (Lysobacter enzymogenes)
[3] = target: HtsH2C-HA-His (cytoplasmic fragment of HtsH2) (Lysobacter enzymogenes)

Kd [1]	Kd [2]	Kd [3]	Substance
0.178 nM	0.3 nM	–	HtsH2C-HA-His (cytoplasmic fragment of HtsH2) (domain or fragment)
0.16 nM	0.0668 nM	0.0962 nM	HtsH1C-Flag-His (cytoplasmic fragment of HtsH1) (domain or fragment)
–	0.168 nM	–	HtsH3C-Myc-His (cytoplasmic fragment of HtsH3) (domain or fragment)
